This note sets out measurements from publication PMC2577357 (Nucleic Acids Research, 2008).

A word on the Kd: it is the constant that tells how readily two partners part at equilibrium. High values mean a looser complex, low ones a tighter complex. One may read the stoichiometry N as the number of molecules, sites or subunits per partner or assembly.

One data set has as its target T1, MthRnl (Methanobacterium thermoautotrophicum ΔH, UniProt O27289 1-381).
T1 sequence: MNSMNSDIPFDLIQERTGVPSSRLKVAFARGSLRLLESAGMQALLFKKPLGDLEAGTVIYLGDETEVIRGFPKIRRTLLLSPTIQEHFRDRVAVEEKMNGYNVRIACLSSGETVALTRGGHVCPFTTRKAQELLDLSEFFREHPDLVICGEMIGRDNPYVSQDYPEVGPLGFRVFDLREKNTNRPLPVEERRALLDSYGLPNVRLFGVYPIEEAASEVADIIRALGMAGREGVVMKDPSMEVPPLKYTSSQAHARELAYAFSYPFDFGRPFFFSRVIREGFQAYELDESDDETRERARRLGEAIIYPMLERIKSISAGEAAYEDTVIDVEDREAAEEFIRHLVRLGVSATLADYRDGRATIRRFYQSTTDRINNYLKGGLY
Description: EMSA. In general terms: Mobility shift assays separate free from complexed probe on a gel.

Data set [1] deals with the molecule itself. Put plainly: glycerol gradient sedimentation.

Consider ATTCCGATAGTGCGTGTCGCCCTT (ssDNA, 5'-phosphate) [pDNA 24-mer], for which the Kd with MthRnl was approximately 2000 nM.

B1: Methanobacterium RNA ligase (MthRnl), full-length, His10-tagged (enzyme, Methanobacterium thermoautotrophicum ΔH, UniProt O27289 1-381, looked up)
chain: T1 sequence
In the case of B1, the “stoichiometry N” value in data set [1] amounted to 2.
Molecule AUUCCGAUAGUGCGUGUCGCCCUU (ssRNA, 5'-phosphate) [pRNA 24-mer] came in with a Kd with MthRnl of approximately 1500 nM.
